Data from paper PMC8558838 (The Journal of Experimental Medicine, 2021).

B1: hCD160-6×His tag protein [human] / WT hHVEM (L39-V202) fused with a PD-L1 transmembrane domain and EGFP, on cells [human] (parent complex)
chain 1: GCINITSSASQEGTRLNLICTVWHKKEEAEGFVVFLCKDRSGDCSPETSLKQLRLKRDPGIDGVGEISSQLMFTISQVTPLHSGTYQCCARSQKSGIRLQGHFFSILFTETGNYTVTGLKQRQHLEFSHNEGTLS
chain 2: LPSCKEDEYPVGSECCPKCSPGYRVKEACGELTGTVCEPCPPGTYIAHLNGLSKCLQCQMCDPAMGLRASRNCSRTENAVCGCSPGHFCIVQDGDHCAACRAYATSSPGQRVQKGGTESQDTLCQNCPPGTFSPNGTLEECQHQTKCSWLVTKAGAGTSSSHWV
B2: mouse CD160 (30I-154H) with C-terminal …, biotinylated [modified: biotin; biotin] [mouse] / full-length WT mouse HVEM-mCherry, on cells [mouse] (parent complex)
chain 1: IHVTSSASQKGGRLDLTCTLWHKKDEAEGLILFWCKDNPWNCSPETNLEQLRVKRDPETDGITEKSSQLVFTIEQATPSDSGTYQCCARSQKPEIYIHGHFLSVLVTGNHTEIRQRQRSHPDFSH
chain 2: QPSCRQEEFLVGDECCPMCNPGYHVKQVCSEHTGTVCAPCPPQTYTAHANGLSKCLPCGVCDPDMGLLTWQECSSWKDTVCRCIPGYFCENQDGSHCSTCLQHTTCPPGQRVEKRGTHDQDTVCADCLTGTFSLGGTQEECLPWTNCSAFQQEVRRGTNSTDTTCSSQVVYYVVSILLPLVIVGAGIAGFLICTRRHLHTSSVAKELEPFQEQQENTIRFPVTEVGFAETEEETASN
B3: full-length mouse LIGHT, on cells (mLIGHT-IRES-EGFP) [mouse] / full-length WT mouse HVEM-mCherry, on cells [mouse] (parent complex)
chain 1: MESVVQPSVFVVDGQTDIPFRRLEQNHRRRRCGTVQVSLALVLLLGAGLATQGWFLLRLHQRLGDIVAHLPDGGKGSWEKLIQDQRSHQANPAAHLTGANASLIGIGGPLLWETRLGLAFLRGLTYHDGALVTMEPGYYYVYSKVQLSGVGCPQGLANGLPITHGLYKRTSRYPKELELLVSRRSPCGRANSSRVWWDSSFLGGVVHLEAGEEVVVRVPGNRLVRPRDGTRSYFGAFMV
chain 2: B2 chain 2
B4: full-length mouse BTLA-EGFP, on cells [mouse] / full-length WT mouse HVEM-mCherry, on cells [mouse] (parent complex)
chain 1: EKATKRNDEECPVQLTITRNSKQSARTGELFKIQCPVKYCVHRPNVTWCKHNGTICVPLEVSPQLYTSWEENQSVPVFVLHFKPIHLSDNGSYSCSTNFNSQVINSHSVTIHVRERTQNSSEHPLITVSDIPDATNASGPSTMEERPGRTWLLYTLLPLGALLLLLACVCLLCFLKRIQGKEKKPSDLAGRDTNLVDIPASSRTNHQALPSGTGIYDNDPWSSMQDESELTISLQSERNNQGIVYASLNHCVIGRNPRQENNMQEAPTEYASICVRS
chain 2: B2 chain 2

Variants of: B1
Assay: flow cytometry on cells stained with soluble protein

Variant	ratio to parent
chain 2 G51A	0.9
chain 2 E77A	1.1
chain 2 L49A	1.3
chain 2 N50A	0.8

Variants of: B2
Assay: flow cytometry, cell–protein method

Variant	ratio to parent
chain 2 L56D	0.9
chain 2 L56A	1
chain 2 K77D	0.6
chain 2 K77A	1.1
chain 2 A38D	0.1
chain 2 A38W	1.1
chain 2 T35A	0.1
chain 2 T35D	0.1
chain 2 G51D	0.3
chain 2 H96D	1
chain 2 A49D	0.7
chain 2 S30H	0.6
chain 2 S30D	0.8
chain 2 S30A	0.9
chain 2 T99A	1.1
chain 2 T99D	1.3
chain 2 R5A	0.2
chain 2 R5D	0.1
chain 2 H48R	1
chain 2 H48D	1.1

Variant	ratio to parent
chain 2 K26D	0.6
chain 2 K26A	0.7
chain 2 S98D	1.1
chain 2 S98A	1.1
chain 2 M18D	0.1
chain 2 M18A	0.6
chain 2 G34D	0.1
chain 2 G34R	0.1
chain 2 G34A	0.1
chain 2 V36D	0.1
chain 2 V36A	1
chain 2 L52A	0.9
chain 2 L52R	0.8
chain 2 L52D	0.9
chain 2 E8R	0.1
chain 2 E8A	0.1
chain 2 N50D	0.1
chain 2 N50A	0.1
chain 2 P17A	0.1

Variants of: B2
Assay: flow cytometry, cell–protein method; read off a plot

Variant	ratio to parent
chain 2 G34D, chain 2 V36R	~0.01
chain 2 G34D, chain 2 V36A	~0.01
chain 2 G34D, chain 2 V36D	~0.01
chain 2 H48R, chain 2 L52A	~1
chain 2 H48D, chain 2 L52D	~0.76
chain 2 H48D, chain 2 L52R	~0.66
chain 2 G34A, chain 2 V36D	~0.01
chain 2 G34R, chain 2 V36A	~0.01
chain 2 H48A, chain 2 L52A	~1.4

Variants of: B3
Assay: flow cytometry, cell–cell method

Variant	ratio to parent
chain 2 P17A	0.8
chain 2 S30A	1
chain 2 S30H	1.1
chain 2 S30D	0.8
chain 2 L56A	0.8
chain 2 L56D	0.6
chain 2 H48D	0.8
chain 2 H48R	1
chain 2 E8R	1
chain 2 E8A	0.9
chain 2 H96D	0.7
chain 2 N50A	0.5
chain 2 N50D	0.5
chain 2 T99D	0.7
chain 2 T99A	0.8
chain 2 S98D	0.8
chain 2 S98A	0.9
chain 2 R5A	0.5
chain 2 R5D	1.1
chain 2 G34D	0.9

Variant	ratio to parent
chain 2 G34R	0.6
chain 2 G34A	1.2
chain 2 V36D	0.9
chain 2 V36A	1
chain 2 L52A	0.7
chain 2 L52D	0.4
chain 2 L52R	0.4
chain 2 A38D	1.1
chain 2 A38W	0.9
chain 2 M18D	0.9
chain 2 M18A	1.2
chain 2 T35A	0.7
chain 2 T35D	0.3
chain 2 A49D	1.2
chain 2 K77D	1.4
chain 2 K77A	1.8
chain 2 G51D	0.4
chain 2 K26D	1.1
chain 2 K26A	1

Variants of: B3
Assay: flow cytometry, cell–cell method; read off a plot

Variant	ratio to parent
chain 2 H48D, chain 2 L52D	~0.25
chain 2 H48D, chain 2 L52A	~0.24
chain 2 H48D, chain 2 L52R	~0.37
chain 2 G34D, chain 2 V36A	~1.1
chain 2 G34D, chain 2 V36D	~0.87
chain 2 G34D, chain 2 V36R	~1.3
chain 2 G34R, chain 2 V36A	~1.2
chain 2 G34A, chain 2 V36D	~1.1
chain 2 H48R, chain 2 L52A	~0.3
chain 2 H48A, chain 2 L52A	~0.28

Variants of: B4
Assay: flow cytometry, cell–cell method

Variant	ratio to parent
chain 2 A38W	1.2
chain 2 A38D	1.2
chain 2 G51D	1
chain 2 K77A	1.3
chain 2 K77D	1.2
chain 2 S30H	0.9
chain 2 S30A	1
chain 2 S30D	0.8
chain 2 S98A	1
chain 2 S98D	1
chain 2 N50D	0.9
chain 2 N50A	1.1
chain 2 A49D	1.3
chain 2 K26A	0.9
chain 2 K26D	1
chain 2 L56A	1
chain 2 L56D	1.1
chain 2 T35D	0.1
chain 2 T35A	0.5
chain 2 R5D	1.2

Variant	ratio to parent
chain 2 R5A	0.7
chain 2 H96D	0.9
chain 2 T99D	0.9
chain 2 T99A	1
chain 2 E8A	1
chain 2 E8R	0.7
chain 2 M18D	1
chain 2 M18A	1.2
chain 2 L52D	0.8
chain 2 L52A	1
chain 2 L52R	0.9
chain 2 H48R	1.1
chain 2 H48D	1.1
chain 2 G34R	0.1
chain 2 G34D	0.3
chain 2 G34A	1
chain 2 P17A	0.4
chain 2 V36A	1
chain 2 V36D	0.8

Variants of: B4
Assay: flow cytometry, cell–cell method; read off a plot

Variant	ratio to parent
chain 2 H48D, chain 2 L52R	~1.4
chain 2 H48D, chain 2 L52A	~1
chain 2 H48D, chain 2 L52D	~1.1
chain 2 H48R, chain 2 L52A	~1.2
chain 2 G34R, chain 2 V36A	~0.06
chain 2 G34A, chain 2 V36D	~0.06
chain 2 G34D, chain 2 V36A	~0.07
chain 2 G34D, chain 2 V36D	~0.06
chain 2 G34D, chain 2 V36R	~0.05
chain 2 H48A, chain 2 L52A	~0.88
